Patent US20080219971A1 (VACCINEX, published 2008)

T1: Human CD100 (human, UniProt Q92854 22-734, limits assumed)
T1 construct: also called SEMA4D; Hu CD100
T1 sequence (looked up): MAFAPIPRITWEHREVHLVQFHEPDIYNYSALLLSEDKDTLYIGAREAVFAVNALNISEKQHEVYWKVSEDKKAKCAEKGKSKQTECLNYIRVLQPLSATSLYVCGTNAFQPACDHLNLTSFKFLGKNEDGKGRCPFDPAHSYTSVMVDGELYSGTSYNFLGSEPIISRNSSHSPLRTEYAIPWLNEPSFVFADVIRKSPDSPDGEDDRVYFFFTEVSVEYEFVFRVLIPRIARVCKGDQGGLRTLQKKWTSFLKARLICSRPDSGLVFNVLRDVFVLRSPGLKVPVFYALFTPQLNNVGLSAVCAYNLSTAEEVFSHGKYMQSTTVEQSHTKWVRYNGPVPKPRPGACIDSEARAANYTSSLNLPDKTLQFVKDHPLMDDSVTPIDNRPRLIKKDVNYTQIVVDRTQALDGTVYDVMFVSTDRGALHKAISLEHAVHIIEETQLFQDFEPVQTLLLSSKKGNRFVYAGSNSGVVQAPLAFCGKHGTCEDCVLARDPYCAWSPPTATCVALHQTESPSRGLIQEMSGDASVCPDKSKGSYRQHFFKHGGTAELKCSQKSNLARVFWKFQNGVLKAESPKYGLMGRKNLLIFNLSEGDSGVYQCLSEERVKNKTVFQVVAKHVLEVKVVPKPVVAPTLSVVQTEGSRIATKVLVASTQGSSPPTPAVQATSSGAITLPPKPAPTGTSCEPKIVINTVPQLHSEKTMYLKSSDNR


biological target: T1, Human CD100; test: affinity testing, method and unit not printed in Example 10 (nM as in Table 3)

Binder | Kd [nM]
MAb 2284 (antibody, V domains shown, Double mutant of H1651 with L284; also called H1651 K23T Y60F with L284) VH: QVQLVQSGAEVKKPGSSVKVSCTASGYTFTDYYMDWVRQAPGQGLEWMGRVNPYHGGATFNQKFKGRVTITADKSTSTAYMELSSLRSEDTAVYYCAREENSYDGYYGMDYWGQGTLVTVSS VL: DIVMTQSPLSLPVSPGEPATINCKSSQSLFNSGNQKNYLAWYLQKPGQPPKLLIYGASTRESGVPDRFSGSGSGTDFTLTISSLQAEDVAVYYCQNDHTYPYTFGQGTKLEIK | 0.24
MAb 2279 (antibody, V domains shown, Double mutant of H1651 with L284; also called H1651 Q6A Y60V with L284) VH: QVQLVASGAEVKKPGSSVKVSCKASGYTFTDYYMDWVRQAPGQGLEWMGRVNPYHGGATVNQKFKGRVTITADKSTSTAYMELSSLRSEDTAVYYCAREENSYDGYYGMDYWGQGTLVTVSS VL: DIVMTQSPLSLPVSPGEPATINCKSSQSLFNSGNQKNYLAWYLQKPGQPPKLLIYGASTRESGVPDRFSGSGSGTDFTLTISSLQAEDVAVYYCQNDHTYPYTFGQGTKLEIK | 0.14
MAb 2280 (antibody, V domains shown, Double mutant of H1651 with L284; also called H1651 K23T D31K with L284) VH: QVQLVQSGAEVKKPGSSVKVSCTASGYTFTKYYMDWVRQAPGQGLEWMGRVNPYHGGATYNQKFKGRVTITADKSTSTAYMELSSLRSEDTAVYYCAREENSYDGYYGMDYWGQGTLVTVSS VL: DIVMTQSPLSLPVSPGEPATINCKSSQSLFNSGNQKNYLAWYLQKPGQPPKLLIYGASTRESGVPDRFSGSGSGTDFTLTISSLQAEDVAVYYCQNDHTYPYTFGQGTKLEIK | 0.13

Continued, values first:

Kd [nM] | Binder
0.09 | MAb 2281 (antibody, V domains shown, Double mutant of H1651 with L284; also called H1651 K23T G57F with L284) VH: QVQLVQSGAEVKKPGSSVKVSCTASGYTFTDYYMDWVRQAPGQGLEWMGRVNPYHGFATYNQKFKGRVTITADKSTSTAYMELSSLRSEDTAVYYCAREENSYDGYYGMDYWGQGTLVTVSS VL: DIVMTQSPLSLPVSPGEPATINCKSSQSLFNSGNQKNYLAWYLQKPGQPPKLLIYGASTRESGVPDRFSGSGSGTDFTLTISSLQAEDVAVYYCQNDHTYPYTFGQGTKLEIK
0.09 | MAb 2275 (antibody, V domains shown, Double mutant of H1651 with L284; also called H1651 Q6A G57F with L284) VH: QVQLVASGAEVKKPGSSVKVSCKASGYTFTDYYMDWVRQAPGQGLEWMGRVNPYHGFATYNQKFKGRVTITADKSTSTAYMELSSLRSEDTAVYYCAREENSYDGYYGMDYWGQGTLVTVSS VL: DIVMTQSPLSLPVSPGEPATINCKSSQSLFNSGNQKNYLAWYLQKPGQPPKLLIYGASTRESGVPDRFSGSGSGTDFTLTISSLQAEDVAVYYCQNDHTYPYTFGQGTKLEIK
0.09 | MAb 2282 (antibody, V domains shown, Double mutant of H1651 with L284; also called H1651 K23T G57Y with L284) VH: QVQLVQSGAEVKKPGSSVKVSCTASGYTFTDYYMDWVRQAPGQGLEWMGRVNPYHGYATYNQKFKGRVTITADKSTSTAYMELSSLRSEDTAVYYCAREENSYDGYYGMDYWGQGTLVTVSS VL: DIVMTQSPLSLPVSPGEPATINCKSSQSLFNSGNQKNYLAWYLQKPGQPPKLLIYGASTRESGVPDRFSGSGSGTDFTLTISSLQAEDVAVYYCQNDHTYPYTFGQGTKLEIK
0.1 | MAb 2274 (antibody, V domains shown, Double mutant of H1651 with L284; also called H1651 Q6A D31K with L284) VH: QVQLVASGAEVKKPGSSVKVSCKASGYTFTKYYMDWVRQAPGQGLEWMGRVNPYHGGATYNQKFKGRVTITADKSTSTAYMELSSLRSEDTAVYYCAREENSYDGYYGMDYWGQGTLVTVSS VL: DIVMTQSPLSLPVSPGEPATINCKSSQSLFNSGNQKNYLAWYLQKPGQPPKLLIYGASTRESGVPDRFSGSGSGTDFTLTISSLQAEDVAVYYCQNDHTYPYTFGQGTKLEIK
0.09 | MAb 2276 (antibody, V domains shown, Double mutant of H1651 with L284; also called H1651 Q6A G57Y with L284) VH: QVQLVASGAEVKKPGSSVKVSCKASGYTFTDYYMDWVRQAPGQGLEWMGRVNPYHGYATYNQKFKGRVTITADKSTSTAYMELSSLRSEDTAVYYCAREENSYDGYYGMDYWGQGTLVTVSS VL: DIVMTQSPLSLPVSPGEPATINCKSSQSLFNSGNQKNYLAWYLQKPGQPPKLLIYGASTRESGVPDRFSGSGSGTDFTLTISSLQAEDVAVYYCQNDHTYPYTFGQGTKLEIK
0.13 | MAb 2283 (antibody, V domains shown, Double mutant of H1651 with L284; also called H1651 K23T T59F with L284) VH: QVQLVQSGAEVKKPGSSVKVSCTASGYTFTDYYMDWVRQAPGQGLEWMGRVNPYHGGAFYNQKFKGRVTITADKSTSTAYMELSSLRSEDTAVYYCAREENSYDGYYGMDYWGQGTLVTVSS VL: DIVMTQSPLSLPVSPGEPATINCKSSQSLFNSGNQKNYLAWYLQKPGQPPKLLIYGASTRESGVPDRFSGSGSGTDFTLTISSLQAEDVAVYYCQNDHTYPYTFGQGTKLEIK
0.09 | MAb 2277 (antibody, V domains shown, Double mutant of H1651 with L284; also called H1651 Q6A T59F with L284) VH: QVQLVASGAEVKKPGSSVKVSCKASGYTFTDYYMDWVRQAPGQGLEWMGRVNPYHGGAFYNQKFKGRVTITADKSTSTAYMELSSLRSEDTAVYYCAREENSYDGYYGMDYWGQGTLVTVSS VL: DIVMTQSPLSLPVSPGEPATINCKSSQSLFNSGNQKNYLAWYLQKPGQPPKLLIYGASTRESGVPDRFSGSGSGTDFTLTISSLQAEDVAVYYCQNDHTYPYTFGQGTKLEIK
0.11 | MAb 2278 (antibody, V domains shown, Double mutant of H1651 with L284; also called H1651 Q6A Y60F with L284) VH: QVQLVASGAEVKKPGSSVKVSCKASGYTFTDYYMDWVRQAPGQGLEWMGRVNPYHGGATFNQKFKGRVTITADKSTSTAYMELSSLRSEDTAVYYCAREENSYDGYYGMDYWGQGTLVTVSS VL: DIVMTQSPLSLPVSPGEPATINCKSSQSLFNSGNQKNYLAWYLQKPGQPPKLLIYGASTRESGVPDRFSGSGSGTDFTLTISSLQAEDVAVYYCQNDHTYPYTFGQGTKLEIK
0.1 | MAb 2285 (antibody, V domains shown, Double mutant of H1651 with L284; also called H1651 K23T Y60V with L284) VH: QVQLVQSGAEVKKPGSSVKVSCTASGYTFTDYYMDWVRQAPGQGLEWMGRVNPYHGGATVNQKFKGRVTITADKSTSTAYMELSSLRSEDTAVYYCAREENSYDGYYGMDYWGQGTLVTVSS VL: DIVMTQSPLSLPVSPGEPATINCKSSQSLFNSGNQKNYLAWYLQKPGQPPKLLIYGASTRESGVPDRFSGSGSGTDFTLTISSLQAEDVAVYYCQNDHTYPYTFGQGTKLEIK

biological target: T1, Human CD100; test: affinity testing, method and unit not printed in Example 10 (nM as in Table 3); mutant value, before the parentheses

Kd [nM] | Binder
0.52 | MAb 2117 (antibody, V domains shown, H1651 mutant VH combined with L284; also called H1651 D104T with L284) VH: QVQLVQSGAEVKKPGSSVKVSCKASGYTFTDYYMDWVRQAPGQGLEWMGRVNPYHGGATYNQKFKGRVTITADKSTSTAYMELSSLRSEDTAVYYCAREENSYTGYYGMDYWGQGTLVTVSS VL: DIVMTQSPLSLPVSPGEPATINCKSSQSLFNSGNQKNYLAWYLQKPGQPPKLLIYGASTRESGVPDRFSGSGSGTDFTLTISSLQAEDVAVYYCQNDHTYPYTFGQGTKLEIK
0.61 | MAb 2139 (antibody, V domains shown, H1651 mutant VH combined with L284; also called H1651 K23T with L284) VH: QVQLVQSGAEVKKPGSSVKVSCTASGYTFTDYYMDWVRQAPGQGLEWMGRVNPYHGGATYNQKFKGRVTITADKSTSTAYMELSSLRSEDTAVYYCAREENSYDGYYGMDYWGQGTLVTVSS VL: DIVMTQSPLSLPVSPGEPATINCKSSQSLFNSGNQKNYLAWYLQKPGQPPKLLIYGASTRESGVPDRFSGSGSGTDFTLTISSLQAEDVAVYYCQNDHTYPYTFGQGTKLEIK
0.66 | MAb 2125 (antibody, V domains shown, H1651 mutant VH combined with L284; also called H1651 E100D with L284) VH: QVQLVQSGAEVKKPGSSVKVSCKASGYTFTDYYMDWVRQAPGQGLEWMGRVNPYHGGATYNQKFKGRVTITADKSTSTAYMELSSLRSEDTAVYYCAREDNSYDGYYGMDYWGQGTLVTVSS VL: DIVMTQSPLSLPVSPGEPATINCKSSQSLFNSGNQKNYLAWYLQKPGQPPKLLIYGASTRESGVPDRFSGSGSGTDFTLTISSLQAEDVAVYYCQNDHTYPYTFGQGTKLEIK
